Laboratory results as given in patent US20200017549A1, “NOVEL a4B7 PEPTIDE ANTAGONISTS” (Protagonist Therapeutics, Inc., priority 2013, published 2020).
Bridge positions count the residues as written; N and C are the ends. Square brackets hold non-standard residues; d marks the D form. Ends that are not written are not given here. NMeR = CN[C@@H](CCCNC(=N)N)C(=O)O

Target: T1, α4β7 (RPMI 8866 cells) (Homo sapiens, UniProt P13612+P26010)
T1 construct: host or cells: RPMI 8866 cells
T1 sequence (P13612 34-1032): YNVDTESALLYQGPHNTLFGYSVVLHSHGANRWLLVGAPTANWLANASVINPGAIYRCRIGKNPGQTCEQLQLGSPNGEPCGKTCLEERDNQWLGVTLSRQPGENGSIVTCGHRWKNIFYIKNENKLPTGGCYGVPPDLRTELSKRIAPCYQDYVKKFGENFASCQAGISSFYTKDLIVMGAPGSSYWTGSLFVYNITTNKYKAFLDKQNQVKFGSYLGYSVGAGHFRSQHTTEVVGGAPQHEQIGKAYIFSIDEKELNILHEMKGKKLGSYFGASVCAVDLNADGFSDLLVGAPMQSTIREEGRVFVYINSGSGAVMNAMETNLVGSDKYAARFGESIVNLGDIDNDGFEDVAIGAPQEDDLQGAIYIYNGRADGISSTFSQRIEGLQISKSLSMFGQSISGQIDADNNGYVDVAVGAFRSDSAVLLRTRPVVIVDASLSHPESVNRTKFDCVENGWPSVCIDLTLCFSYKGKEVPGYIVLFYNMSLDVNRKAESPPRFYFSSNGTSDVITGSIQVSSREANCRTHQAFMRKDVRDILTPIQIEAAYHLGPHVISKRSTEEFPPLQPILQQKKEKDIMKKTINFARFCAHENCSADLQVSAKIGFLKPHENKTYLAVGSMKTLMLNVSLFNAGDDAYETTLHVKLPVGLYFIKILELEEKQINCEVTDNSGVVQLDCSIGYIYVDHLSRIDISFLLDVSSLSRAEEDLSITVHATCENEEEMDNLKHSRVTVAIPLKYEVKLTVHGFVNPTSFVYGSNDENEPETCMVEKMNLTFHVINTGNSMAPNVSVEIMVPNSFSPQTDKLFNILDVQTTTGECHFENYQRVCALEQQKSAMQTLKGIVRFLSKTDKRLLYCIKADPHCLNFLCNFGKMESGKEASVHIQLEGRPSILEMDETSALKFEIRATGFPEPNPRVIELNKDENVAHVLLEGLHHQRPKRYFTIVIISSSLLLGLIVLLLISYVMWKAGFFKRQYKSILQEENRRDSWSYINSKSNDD
T1 sequence (P26010 20-798): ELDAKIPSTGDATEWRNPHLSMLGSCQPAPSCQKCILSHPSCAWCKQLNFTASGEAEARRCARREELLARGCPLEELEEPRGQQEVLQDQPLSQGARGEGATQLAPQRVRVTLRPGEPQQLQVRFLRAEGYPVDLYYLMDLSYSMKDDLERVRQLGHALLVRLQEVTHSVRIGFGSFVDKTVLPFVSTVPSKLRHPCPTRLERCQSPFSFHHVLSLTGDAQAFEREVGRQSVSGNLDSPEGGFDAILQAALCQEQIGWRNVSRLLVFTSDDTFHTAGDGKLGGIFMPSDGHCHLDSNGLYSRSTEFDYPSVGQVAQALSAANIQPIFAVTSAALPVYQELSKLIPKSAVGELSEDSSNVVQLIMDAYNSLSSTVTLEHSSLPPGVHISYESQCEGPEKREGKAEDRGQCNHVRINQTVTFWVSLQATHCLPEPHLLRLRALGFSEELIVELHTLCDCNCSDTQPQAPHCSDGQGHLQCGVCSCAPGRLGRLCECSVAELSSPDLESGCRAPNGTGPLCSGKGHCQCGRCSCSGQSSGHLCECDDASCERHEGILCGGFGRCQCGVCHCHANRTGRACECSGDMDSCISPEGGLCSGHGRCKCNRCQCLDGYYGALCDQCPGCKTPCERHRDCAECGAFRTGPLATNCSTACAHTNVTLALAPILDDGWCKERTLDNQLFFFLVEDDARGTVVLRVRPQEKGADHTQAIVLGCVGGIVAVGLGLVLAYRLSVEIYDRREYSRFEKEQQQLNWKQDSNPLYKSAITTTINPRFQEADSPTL
Test: α4β7-MAdCAM Cell Adhesion Assay
Format: cell-based
Conditions: N-Me-Arg substituted, as compared to SEQ ID NO:39
Method: α4β7-MAdCAM Cell Adhesion Assay
RPMI 8866 cells (Sigma #95041316) are cultured in RPMI 1640 HEPES medium (Invitrogen #22400-089) supplemented with 10% serum (Fetal Bovine Serum, Invitrogen # 16140-071), 1 mM sodium pyruvate (Invitrogen #11360-070), 2 mM L-glutamine (Invitrogen # 25030-081) and Penicillin-Streptomycin (Invitrogen # 15140-122) at 100 units of penicillin and 100 μg of streptomycin per ml. The cells are washed two times in DMEM medium (ATCC #30-2002) supplemented with 0.1% BSA, 10 mM HEPES pH 7 and 1 mM MnCl2. The cells are re-suspended in supplemented DMEM medium at a density of 4×10^6 cells/ml.
A Nunc MaxiSorp plate was coated with rh MAdCAM-1/Fc Chimera (R&D #6065-MC) at 200 ng per well in 50 ul per well in 1×PBS and incubated at 4° C. overnight. The solution was then removed by shaking, blocked with 250 ul per well PBS containing 1% BSA, and incubated at 37° C. for 1 hr. The solution was removed by shaking. peptides are diluted by serial dilution in a final volume of 50 ul per well (2× concentration). To each well, 50 ul of cells (200,000 cells) are added and the plate is incubated at 37° C., 5% CO2 for 30-45 min to allow cell adhesion. […] The plate is shaken for 5 min and the absorbance at 570 nm is measured. To calculate the dose response, the absorbance value of control wells not containing cells is subtracted from each test well.

## SEQ ID NO: 48: integrin antagonist peptide substituted with N-Me-Arg (C[NMeR]SDTLCK; disulfide 1-7)
  potency for α4β7 in cell adhesion assay: increased potency
